Experimental findings from publication PMC3333781, “Systematic mapping of two component response regulators to gene targets in a model sulfate reducing bacterium” are described below.

The target of data set [1] is T1, DVU1419 response regulator (Desulfovibrio vulgaris Hildenborough) (UniProt Q72C65).
T1 sequence: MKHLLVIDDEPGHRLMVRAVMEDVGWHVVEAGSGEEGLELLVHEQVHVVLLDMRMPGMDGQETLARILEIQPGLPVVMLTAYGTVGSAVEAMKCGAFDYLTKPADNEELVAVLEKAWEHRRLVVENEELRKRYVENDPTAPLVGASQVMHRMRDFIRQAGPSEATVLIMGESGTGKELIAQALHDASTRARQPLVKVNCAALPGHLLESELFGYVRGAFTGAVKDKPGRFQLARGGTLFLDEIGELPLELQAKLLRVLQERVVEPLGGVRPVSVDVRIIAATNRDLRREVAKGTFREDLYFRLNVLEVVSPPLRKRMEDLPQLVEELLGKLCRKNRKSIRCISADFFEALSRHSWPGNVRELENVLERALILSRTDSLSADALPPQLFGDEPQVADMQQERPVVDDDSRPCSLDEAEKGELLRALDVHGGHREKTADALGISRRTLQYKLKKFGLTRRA
Nature of the data set: EMSA. To be noted: EMSA: 10 mM Tris-HCl pH 7.5, 1 mM DTT, 50 mM KCl, 5 mM MgCl2, 25% glycerol, 1 ug/ml poly dI-dC, 50-100 fmol biotin-DNA, 25-30 C, 20 min. Background: In EMSA bound probe runs differently from free probe, usually more slowly.

For data set [2], the target named is T2, DVU2394 response regulator (Desulfovibrio vulgaris Hildenborough, UniProt Q729F7 1-463).
T2 sequence: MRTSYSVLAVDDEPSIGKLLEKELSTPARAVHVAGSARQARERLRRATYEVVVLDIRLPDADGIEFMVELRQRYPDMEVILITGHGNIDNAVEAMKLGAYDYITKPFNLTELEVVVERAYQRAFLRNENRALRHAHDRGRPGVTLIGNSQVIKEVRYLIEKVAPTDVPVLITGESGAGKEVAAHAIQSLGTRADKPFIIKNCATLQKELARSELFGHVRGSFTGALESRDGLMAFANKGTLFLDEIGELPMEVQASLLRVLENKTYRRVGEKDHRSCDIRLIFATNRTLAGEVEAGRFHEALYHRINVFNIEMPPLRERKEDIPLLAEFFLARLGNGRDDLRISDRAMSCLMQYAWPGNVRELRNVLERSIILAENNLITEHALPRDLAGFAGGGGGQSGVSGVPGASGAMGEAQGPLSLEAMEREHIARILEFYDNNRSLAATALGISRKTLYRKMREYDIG
The experiment in a line: EMSA; 10 mM Tris-HCl pH 7.5, 1 mM DTT, 50 mM KCl, 5 mM MgCl2, 25% glycerol, 1 ug/ml poly dI-dC, 50-100 fmol biotinylated DNA, 25-30 C, 20 min. The following applies: protein: recombinant; tags: C-terminal V5-6xHis; chain copies: 2; label: 5'-biotin top strand.

Data set [3] has as its target T3, DVU0946 response regulator (Desulfovibrio vulgaris Hildenborough, UniProt Q72DI3 1-476).
T3 sequence: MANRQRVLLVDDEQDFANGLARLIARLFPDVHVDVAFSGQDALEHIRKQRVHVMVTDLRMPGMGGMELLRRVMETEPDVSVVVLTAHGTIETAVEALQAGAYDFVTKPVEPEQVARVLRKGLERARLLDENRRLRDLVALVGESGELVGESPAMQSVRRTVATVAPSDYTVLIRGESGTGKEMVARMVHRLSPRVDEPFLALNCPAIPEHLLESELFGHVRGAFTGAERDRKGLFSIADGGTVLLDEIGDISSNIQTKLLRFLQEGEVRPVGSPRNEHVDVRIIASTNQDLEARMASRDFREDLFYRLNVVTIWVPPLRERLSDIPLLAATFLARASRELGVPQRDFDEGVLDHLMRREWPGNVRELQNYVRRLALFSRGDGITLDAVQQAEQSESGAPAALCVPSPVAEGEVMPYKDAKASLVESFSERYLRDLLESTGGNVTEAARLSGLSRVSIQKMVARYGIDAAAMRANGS
The experiment in a line: EMSA; EMSA: 10 mM Tris-HCl pH 7.5, 1 mM DTT, 50 mM KCl, 5 mM MgCl2, 25% glycerol, 1 ug/ml poly dI-dC, 50-100 fmol biotin-DNA, 25-30 C, 20 min. The following applies: protein: recombinant; tags: C-terminal V5-6xHis; chain copies: 2; label: 5'-biotin top strand; blunt.

The target of data set [4] is T4, DVU0539 response regulator (Desulfovibrio vulgaris Hildenborough, UniProt Q72EN8 1-467).
T4 sequence: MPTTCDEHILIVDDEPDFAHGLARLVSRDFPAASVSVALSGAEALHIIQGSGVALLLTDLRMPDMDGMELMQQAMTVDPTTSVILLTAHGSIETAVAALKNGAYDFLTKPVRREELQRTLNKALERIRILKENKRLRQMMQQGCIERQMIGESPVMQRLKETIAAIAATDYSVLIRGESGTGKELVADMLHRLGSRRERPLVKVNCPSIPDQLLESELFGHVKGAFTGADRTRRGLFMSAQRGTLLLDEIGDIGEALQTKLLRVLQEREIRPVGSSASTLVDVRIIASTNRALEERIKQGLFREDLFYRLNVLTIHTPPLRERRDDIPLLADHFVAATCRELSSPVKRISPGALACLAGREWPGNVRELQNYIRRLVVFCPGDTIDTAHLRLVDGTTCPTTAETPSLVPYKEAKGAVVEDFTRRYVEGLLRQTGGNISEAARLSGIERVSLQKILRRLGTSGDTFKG
The data set is described as above. To be noted: protein: recombinant; tags: C-terminal V5-6xHis; chain copies: 2; label: 5'-biotin top strand; blunt.

The target of data set [5] is T5, DVU1063 response regulator (Desulfovibrio vulgaris Hildenborough, UniProt Q72D66 1-479).
T5 sequence: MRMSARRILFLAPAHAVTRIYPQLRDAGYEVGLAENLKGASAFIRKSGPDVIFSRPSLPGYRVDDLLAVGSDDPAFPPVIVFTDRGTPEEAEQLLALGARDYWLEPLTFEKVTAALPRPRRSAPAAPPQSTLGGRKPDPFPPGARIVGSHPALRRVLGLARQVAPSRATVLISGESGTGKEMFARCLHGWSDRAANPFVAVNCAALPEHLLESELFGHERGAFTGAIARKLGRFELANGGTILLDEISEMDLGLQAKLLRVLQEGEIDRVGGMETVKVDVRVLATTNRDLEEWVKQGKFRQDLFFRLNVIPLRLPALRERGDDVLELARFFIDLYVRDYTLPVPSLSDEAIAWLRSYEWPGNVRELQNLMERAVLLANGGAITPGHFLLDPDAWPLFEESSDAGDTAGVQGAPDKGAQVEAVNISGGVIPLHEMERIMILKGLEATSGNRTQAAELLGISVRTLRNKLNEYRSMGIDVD
The description is as above. To be noted: protein: recombinant; tags: C-terminal V5-6xHis; chain copies: 2; label: 5'-biotin top strand; blunt.

Data set [6] concerns the target T6, DVU0118 response regulator (Desulfovibrio vulgaris Hildenborough, UniProt Q72FU5 1-454).
T6 sequence: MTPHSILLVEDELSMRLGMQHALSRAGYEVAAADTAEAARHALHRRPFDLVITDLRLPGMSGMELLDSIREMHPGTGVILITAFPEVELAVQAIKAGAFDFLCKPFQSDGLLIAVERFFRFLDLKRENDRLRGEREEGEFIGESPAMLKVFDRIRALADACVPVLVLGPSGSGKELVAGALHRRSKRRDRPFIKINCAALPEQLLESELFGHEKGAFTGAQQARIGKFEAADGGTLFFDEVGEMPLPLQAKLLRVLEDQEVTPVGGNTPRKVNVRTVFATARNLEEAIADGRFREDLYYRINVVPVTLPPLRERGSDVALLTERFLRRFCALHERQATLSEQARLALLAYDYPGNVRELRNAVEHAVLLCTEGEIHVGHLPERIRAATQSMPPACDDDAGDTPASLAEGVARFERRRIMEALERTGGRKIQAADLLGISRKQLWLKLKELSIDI
The data set is described as above. To be noted: protein: recombinant; tags: C-terminal V5-6xHis; chain copies: 2; label: 5'-biotin top strand; blunt.

The target of data set [7] is T6, DVU0118 response regulator. Nature of the data set: EMSA; 10 mM Tris-HCl pH 7.5, 1 mM DTT, 50 mM KCl, 5 mM MgCl2, 25% glycerol, 1 ug/ml poly dI-dC, 50-100 fmol biotinylated DNA, 25-30 C, 20 min. The following applies: protein: recombinant; tags: C-terminal V5-6xHis; chain copies: 2; label: 5'-biotin top strand.
The target in data set [8] is T7, DVU1419 response regulator (Desulfovibrio vulgaris Hildenborough, UniProt Q72C65 1-459).
T7 sequence: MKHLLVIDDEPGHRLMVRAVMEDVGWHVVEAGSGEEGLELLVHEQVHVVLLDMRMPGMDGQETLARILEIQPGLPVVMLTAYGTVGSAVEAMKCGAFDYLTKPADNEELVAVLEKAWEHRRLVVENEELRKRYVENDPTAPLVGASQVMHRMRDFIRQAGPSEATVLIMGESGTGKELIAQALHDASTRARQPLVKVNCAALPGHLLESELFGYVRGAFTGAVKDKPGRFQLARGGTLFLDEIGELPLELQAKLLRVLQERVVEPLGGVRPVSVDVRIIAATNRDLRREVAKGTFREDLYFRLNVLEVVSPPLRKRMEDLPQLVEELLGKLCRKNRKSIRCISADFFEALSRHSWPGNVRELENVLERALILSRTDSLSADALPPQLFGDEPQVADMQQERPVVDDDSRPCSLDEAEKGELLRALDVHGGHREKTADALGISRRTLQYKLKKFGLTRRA
The experiment in a line: EMSA; EMSA: 10 mM Tris-HCl pH 7.5, 1 mM DTT, 50 mM KCl, 5 mM MgCl2, 25% glycerol, 1 ug/ml poly dI-dC, 50-100 fmol biotin-DNA, 25-30 C, 20 min. The following applies: protein: recombinant; tags: C-terminal V5-6xHis; chain copies: 2; label: 5'-biotin top strand; blunt.

The target of data set [9] is T8, DVU0679 response regulator (Desulfovibrio vulgaris Hildenborough, UniProt Q72E99 1-488).
T8 sequence: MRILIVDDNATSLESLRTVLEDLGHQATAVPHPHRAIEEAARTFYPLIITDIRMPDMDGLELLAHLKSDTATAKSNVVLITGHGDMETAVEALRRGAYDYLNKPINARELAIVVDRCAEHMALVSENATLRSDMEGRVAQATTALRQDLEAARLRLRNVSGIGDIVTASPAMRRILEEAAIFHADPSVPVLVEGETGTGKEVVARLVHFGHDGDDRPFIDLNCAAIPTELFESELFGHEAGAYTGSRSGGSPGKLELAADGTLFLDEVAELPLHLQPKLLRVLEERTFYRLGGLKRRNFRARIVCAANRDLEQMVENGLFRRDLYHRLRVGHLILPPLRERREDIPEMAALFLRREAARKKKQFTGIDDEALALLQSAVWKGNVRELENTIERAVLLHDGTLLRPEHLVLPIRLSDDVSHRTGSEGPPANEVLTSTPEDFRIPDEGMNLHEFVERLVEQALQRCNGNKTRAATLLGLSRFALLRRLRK
Described as above. To be noted: protein: recombinant; tags: C-terminal V5-6xHis; chain copies: 2; label: 5'-biotin top strand; blunt.

For “GTCGGCGATTTCCATGAAGACTCCGGTGGTGTCTGGCGGGACATGAAAGAACTGTGCCGAAGGGTGACACCCCGGCAGATGCTGATGCCGGGTGCGCCACCACAGGCCAGCCCTTGCACCATGTCGCATCGCAAGGTCTCTGCGTTGCCTCGCAACGCGGTGCCGTGCACCATGAATGTGCAAACGATGGCACACAACGCCACGGCGTGCAATAAGATGCACACCACCTGCACATATCAAGCCTCATGTGAAGGAAAAGGACGGC (double strand) [DVU1418 upstream]”, in data set [1], the binding result was “binds”.

B1: DVU2405 motif mut (dsDNA)
DNA 1: TCCAGCCATCTATGTTTTTTCGTGACTATGTTGAAGTTCGACCCAA
DNA 2: TTGGGTCGAACTTCAACATAGTCACGAAAAAACATAGATGGCTGGA
B1: the binding result in data set [2] is on record as “no binding”.

B2: DVU0943 motif wt (dsDNA)
DNA 1: AGGTTTACGATGCAAAGTGATGTTTGCAGCTTGCCGAG
DNA 2: CTCGGCAAGCTGCAAACATCACTTTGCATCGTAAACCT
In the case of B2, the binding result in [3] and in [4] was “binds” throughout.

B3: DVU1032 motif wt (dsDNA)
DNA 1: GGCATGGTCGGGCGGCAGTTTTTTCCTGTATCCTG
DNA 2: CAGGATACAGGAAAAAACTGCCGCCCGACCATGCC
Regarding B3, the binding result in [5] is recorded as “binds”.

B4: DVU0123 motif wt (dsDNA)
DNA 1: CGAACAGGAACATGTTCCCTCAAAGGAACATCGTTGGTGGAA
DNA 2: TTCCACCAACGATGTTCCTTTGAGGGAACATGTTCCTGTTCG
Regarding B4, in data set [6], the binding result is “binds”.

B5: DVU0123 motif mut (dsDNA)
DNA 1: CGAACAGGAACTTCTTGCCTCAAAGGTACGTCGTTGGTGGAA
DNA 2: TTCCACCAACGACGTACCTTTGAGGCAAGAAGTTCCTGTTCG
As for B5, the binding result in data set [7] is “no binding”.

B6: DVU1418 motif wt (dsDNA)
DNA 1: GCCGTGGCGTTGTGTGCCATCGTTTGCACATTCATGGTGC
DNA 2: GCACCATGAATGTGCAAACGATGGCACACAACGCCACGGC
As to B6, the binding result in [8] is “binds”.

B7: DVU1418 motif mut (dsDNA)
DNA 1: GCCGTGGCGTTGTATGCCATCGTTTGCTCGTTCATGGTGC
DNA 2: GCACCATGAACGAGCAAACGATGGCATACAACGCCACGGC
In the case of B7, the binding result in [8] is “no binding”.

B8: DVU0677 motif wt (dsDNA)
DNA 1: AATCGCACGCCGTGCGTATTCGCACGTGCTTTTCCG
DNA 2: CGGAAAAGCACGTGCGAATACGCACGGCGTGCGATT
With B8, the binding result in data set [9] is “binds”.
